From paper PMC9976406, “ANGPTL2 binds MAG to efficiently enhance oligodendrocyte differentiation” (Cell & Bioscience, 2023)

What was measured:
[1] = biological target: ANGPTL2-Flag (angiopoietin-like protein 2) (UniProt Q9UKU9); assay: flow cytometry on cells; conditions: MAG constructs expressed on 293T cells; ANGPTL2 row of plots (representative plot; n = 3 in panel H); parent: 41.7
LILRB2 (Homo sapiens) = LILRB2 (Homo sapiens) (UniProt Q8N423); conditions: cited from earlier work
[2] = biological target: T1, ANGPTL2-Flag (angiopoietin-like protein 2), Q9UKU9; assay: flow cytometry on cells; conditions: chain shown with the change; MAG constructs expressed on 293T cells; ANGPTL2 row of plots (representative plot; n = 3 in panel H); parent: 41.7
T1 chain: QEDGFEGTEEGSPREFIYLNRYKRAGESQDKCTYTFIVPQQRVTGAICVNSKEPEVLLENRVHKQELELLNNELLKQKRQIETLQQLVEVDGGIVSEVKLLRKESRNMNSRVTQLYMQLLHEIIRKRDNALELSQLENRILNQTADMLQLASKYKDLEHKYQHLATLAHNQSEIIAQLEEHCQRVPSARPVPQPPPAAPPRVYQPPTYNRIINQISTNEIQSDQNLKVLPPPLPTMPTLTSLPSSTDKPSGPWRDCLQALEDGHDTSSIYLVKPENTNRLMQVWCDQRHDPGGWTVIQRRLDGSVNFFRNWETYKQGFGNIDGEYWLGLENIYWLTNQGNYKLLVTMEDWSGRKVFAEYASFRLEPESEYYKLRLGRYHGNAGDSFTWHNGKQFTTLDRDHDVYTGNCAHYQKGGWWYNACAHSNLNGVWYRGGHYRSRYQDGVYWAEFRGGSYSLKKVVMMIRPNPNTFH

[3] = biological target: human MAG-ECD-FC (extracellular domain of human MAG fused with human Fc) (human) (UniProt P20916); assay: BLI; Octet RED96/RED96e; MAG-hFc from conditioned medium loaded on AHC biosensors; purified ANGPTL2 at indicated doses in kinetics buffer
[4] = biological target: T2, murine MAG-ECD-Fc (extracellular domain of murine MAG fused with human Fc) (murine, UniProt P20917 20-516); assay: as above; conditions: one partner purified
T2 construct: myelin-associated glycoprotein (MAG), murine, extracellular domain (ECD); also called mouse MAG-hFc; murine MAG-hFC; source: 293T, transfected, in conditioned medium
T2 sequence (looked up): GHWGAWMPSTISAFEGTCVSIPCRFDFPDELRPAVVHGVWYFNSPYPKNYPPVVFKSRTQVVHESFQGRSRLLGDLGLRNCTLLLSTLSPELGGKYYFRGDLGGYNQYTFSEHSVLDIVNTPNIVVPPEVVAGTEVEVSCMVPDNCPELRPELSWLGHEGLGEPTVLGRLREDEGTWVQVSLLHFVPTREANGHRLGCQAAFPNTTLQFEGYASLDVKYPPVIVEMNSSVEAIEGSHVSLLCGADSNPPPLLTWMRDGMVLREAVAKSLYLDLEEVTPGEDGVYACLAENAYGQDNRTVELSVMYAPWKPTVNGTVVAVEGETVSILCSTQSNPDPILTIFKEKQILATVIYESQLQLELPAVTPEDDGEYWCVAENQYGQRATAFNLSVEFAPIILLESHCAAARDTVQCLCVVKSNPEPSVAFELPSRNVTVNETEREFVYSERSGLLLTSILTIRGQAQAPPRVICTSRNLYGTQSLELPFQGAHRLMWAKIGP

[5] = biological target: human MAG-ECD-FC (extracellular domain of human MAG fused with human Fc) (human) (UniProt P20916); assay: SPR; Biacore T200, CM5 chip; MAG-hFc from conditioned medium captured by pre-immobilised anti-hFc antibody; purified ANGPTL2 injected at indicated doses
[6] = biological target: T2, murine MAG-ECD-Fc (extracellular domain …); assay: as above; conditions: one partner purified

Sequence of LILRB2 (Homo sapiens) (Q8N423 22-460): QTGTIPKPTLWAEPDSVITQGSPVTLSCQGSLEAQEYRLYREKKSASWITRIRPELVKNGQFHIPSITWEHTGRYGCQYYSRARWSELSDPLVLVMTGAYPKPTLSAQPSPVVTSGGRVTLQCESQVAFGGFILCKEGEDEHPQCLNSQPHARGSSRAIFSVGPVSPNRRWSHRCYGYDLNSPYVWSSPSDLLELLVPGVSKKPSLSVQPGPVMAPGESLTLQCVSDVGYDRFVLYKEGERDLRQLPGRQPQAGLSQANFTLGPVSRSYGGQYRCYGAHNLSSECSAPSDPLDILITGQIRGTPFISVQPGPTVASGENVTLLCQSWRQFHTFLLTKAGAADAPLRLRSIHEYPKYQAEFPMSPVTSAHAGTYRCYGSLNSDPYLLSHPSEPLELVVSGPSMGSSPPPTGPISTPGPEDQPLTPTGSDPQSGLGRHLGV

## human MAG (myelin-associated glycoprotein), full-length, fused with EGFP (N1-hMAG-EGFP) (from UniProt P20916) G389D; Y341A
[1]
  response (% of EGFP+ cells binding ANGPTL2): 0.33

## ANGPTL2 (from UniProt Q9UKU9)
LILRB2 (Homo sapiens)
  Kd: 5.5 nM

B1: human MAG (myelin-associated glycoprotein), full-length, fused with EGFP (N1-hMAG-EGFP), P20916 G301D; Y303A (protein)
chain: GHWGAWMPSSISAFEGTCVSIPCRFDFPDELRPAVVHGVWYFNSPYPKNYPPVVFKSRTQVVHESFQGRSRLLGDLGLRNCTLLLSNVSPELGGKYYFRGDLGGYNQYTFSEHSVLDIVNTPNIVVPPEVVAGTEVEVSCMVPDNCPELRPELSWLGHEGLGEPAVLGRLREDEGTWVQVSLLHFVPTREANGHRLGCQASFPNTTLQFEGYASMDVKYPPVIVEMNSSVEAIEGSHVSLLCGADSNPPPLLTWMRDGTVLREAVAESLLLELEEVTPAEDDVAACLAENAYGQDNRTVGLSVMYAPWKPTVNGTMVAVEGETVSILCSTQSNPDPILTIFKEKQILSTVIYESELQLELPAVSPEDDGEYWCVAENQYGQRATAFNLSVEFAPVLLLESHCAAARDTVQCLCVVKSNPEPSVAFELPSRNVTVNESEREFVYSERSGLVLTSILTLRGQAQAPPRVICTARNLYGAKSLELPFQGAHRLMWAKIGPVGAVVAFAILIAIVCYITQTRRKKNVTESPSFSAGDNPPVLFSSDFRISGAPEKYESERRLGSERRLLGLRGEPPELDLSYSHSDLGKRPTKDSYTLTEELAEYAEIRVK
[2]
  response (% of EGFP+ cells binding ANGPTL2): 0.61

B2: ANGPTL2-Flag (angiopoietin-like protein 2) (ligand, UniProt Q9UKU9 23-493, looked up)
chain: T1 chain
notes: angiopoietin-like protein 2 (ANGPTL2), secreted into the conditioned medium of 293T cells; The same ANGPTL2-Flag was used on human and murine MAG; also called purified ANGPTL2 protein; source: 293T, transfected with CMV-ANGPTL2-Flag; conditioned medium collected after 48 h, or purified from it with M2 resin
[3]
  Kd: 9.34 nM
[4]
  Kd: 16.4 nM
[5]
  Kd: 6.47 nM
[6]
  Kd: 3.08 nM
